1 substance from publication PMC6565432 can be followed below.

For this assay, the target named is VAPB (endogenous, COS-7 cells) (African green monkey (endogenous in COS-7)). In words: proximity ligation.

Consider “ACBD5 (endogenous, COS-7 cells) (natural protein)”, for which the PLA signals per cell (PLA signals per cell) was found to be 5.6, the PLA signals per cell (single plane) (PLA signals per cell) came out at 10.4 and the PLA signals per cell (z-stack) (PLA signals per cell) worked out at 11.3.
